One block for each molecule: values may come before it.
Tests used:
EPI-001 [1] = assay: intact MS; settings: t = 24 hours (last time point); parent: est. 21; read off a plot
EPI-001 [2] = assay: 1H NMR chemical shift perturbation of EPI-001; settings: 1 molar equivalent of the corresponding Tau-5* mutant; parent: est. -0.018; read off a plot
[3] = molecular target: the molecule itself; assay: dynamic light scattering; NR ADs in 20 mM sodium phosphate pH 7.4, 1 mM TCEP, 0.5% DMSO-d6, 5°C; percentage population of monomer and high-order species; 35 μM AR AD; with and without EPI-001
[4] = molecular target: Cys404 (UniProt position 406, …); assay: NMR; settings: 5 °C, 20 mM sodium phosphate, no added salt stated, 3 mM TCEP, 0.05% (w/v) NaN3, Reduced free thiol, intrinsically disordered fragments, no ligand. Protein concentrations were 70 μM Nt C123, 300 μM Tau-5* C404 and 150 μM Ct C518.
Cys123 (position 123, …) = assay: NMR; settings: 5 °C, 20 mM sodium phosphate, no added salt stated, 3 mM TCEP, 0.05% (w/v) NaN3, Reduced free thiol, intrinsically disordered fragments, no ligand. Protein concentrations were 70 μM Nt C123, 300 μM Tau-5* C404 and 150 μM Ct C518.
Cys518 = assay: NMR; settings: 5 °C, 20 mM sodium phosphate, no added salt stated, 3 mM TCEP, 0.05% (w/v) NaN3, Reduced free thiol, intrinsically disordered fragments, no ligand. Protein concentrations were 70 μM Nt C123, 300 μM Tau-5* C404 and 150 μM Ct C518.

other: EPI-001 adduct (%) (EPI-001 [1]): 2.5% | response (EPI-001 [2]): -0.006 p.p.m.
Molecule: AR AD fragment transactivation unit 5 (Tau-5*; residues 330 to 448) (from UniProt P10275) Y393S; W397A; Y406S; H413A

other: EPI-001 adduct (%) (EPI-001 [1]): 9.3% | response (EPI-001 [2]): -0.008 p.p.m.
Molecule: AR AD fragment transactivation unit 5 (Tau-5*; residues 330 to 448) (from UniProt P10275) W433A; H434A; F437A

response (EPI-001 [2]): -0.021 p.p.m.
Molecule: AR AD fragment transactivation unit 5 (Tau-5*; residues 330 to 448) (from UniProt P10275) C404Y

response (EPI-001 [2]): -0.024 p.p.m.
Molecule: AR AD fragment transactivation unit 5 (Tau-5*; residues 330 to 448) (from UniProt P10275) G407A

response (EPI-001 [2]): -0.003 p.p.m.
Molecule: AR AD fragment transactivation unit 5 (Tau-5*; residues 330 to 448) (from UniProt P10275) noAro

response (EPI-001 [2]): -0.013 p.p.m.
Molecule: AR AD fragment transactivation unit 5 (Tau-5*; residues 330 to 448) (from UniProt P10275) L436P

other: EPI-001 adduct (%) (EPI-001 [1]): 26% | response (EPI-001 [2]): -0.042 p.p.m.
Molecule: AR AD fragment transactivation unit 5 (Tau-5*; residues 330 to 448) (from UniProt P10275) G394A; S395A; G407A

The next lines start with the molecule.

Molecule: AR AD fragment transactivation unit 5 (Tau-5*; residues 330 to 448) (from UniProt P10275) A398P
other: EPI-001 adduct (%) (EPI-001 [1]): 11% | response (EPI-001 [2]): -0.012 p.p.m.

B1: progesterone receptor activation domain (PR AD) (domain or fragment, human (from the printed UniProt entry), UniProt P06401 1-566, looked up)
chain: MTELKAKGPRAPHVAGGPPSPEVGSPLLCRPAAGPFPGSQTSDTLPEVSAIPISLDGLLFPRPCQGQDPSDEKTQDQQSLSDVEGAYSRAEATRGAGGSSSSPPEKDSGLLDSVLDTLLAPSGPGQSQPSPPACEVTSSWCLFGPELPEDPPAAPATQRVLSPLMSRSGCKVGDSSGTAAAHKVLPRGLSPARQLLLPASESPHWSGAPVKPSPQAAAVEVEEEDGSESEESAGPLLKGKPRALGGAAAGGGAAAVPPGAAAGGVALVPKEDSRFSAPRVALVEQDAPMAPGRSPLATTVMDFIHVPILPLNHALLAARTRQLLEDESYDGGAGAASAFAPPRSSPCASSTPVAVGDFPDCAYPPDAEPKDDAYPLYSDFQPPALKIKEEEEGAEASARSPRSYLVAGANPAAFPDFPLGPPPPLPPRATPSRPGEAAVTAAPASASVSSASSSGSTLECILYKAEGAPPQQGPFAPPPCKAPGASGCLLPRDGLPSTSASAAAAGAAPALYPALGLNGLPQLGYQAAVLKEGLPQVYPPYLNYLRPDSEASQSPQYSFESLPQKI
notes: source: E. coli Rosetta (DE3), purified from inclusion bodies (HisTrap in urea, SEC); not shown: His tag, N-terminal, cleaved
binding result [3]: binds

B2: glucocorticoid receptor activation domain (GR AD) (domain or fragment, human (from the printed UniProt entry), UniProt P04150 1-420, looked up)
chain: MDSKESLTPGREENPSSVLAQERGDVMDFYKTLRGGATVKVSASSPSLAVASQSDSKQRRLLVDFPKGSVSNAQQPDLSKAVSLSMGLYMGETETKVMGNDLGFPQQGQISLSSGETDLKLLEESIANLNRSTSVPENPKSSASTAVSAAPTEKEFPKTHSDVSSEQQHLKGQTGTNGGNVKLYTTDQSTFDILQDLEFSSGSPGKETNESPWRSDLLIDENCLLSPLAGEDDSFLLEGNSNEDCKPLILPDTKPKIKDNGDLVLSSPSNVTLPQVKTEKEDFIELCTPGVIKQEKLGTVYCQASFPGANIIGNKMSAISVHGVSTSGGQMYHYDMNTASLSQQQDQKPIFNVIPPIPVGSENWNRCQGSGDDNLTSLGTLNFPGRTVFSNGYSSPSMRPDVSSPPSSSSTATTGPPPKL
notes: as for B1
binding result [3]: binds

B3: estrogen receptor alpha activation domain (ERα AD) (domain or fragment, human (from the printed UniProt entry), UniProt P03372 1-184, looked up)
chain: MTMTLHTKASGMALLHQIQGNELEPLNRPQLKIPLERPLGEVYLDSSKPAVYNYPEGAAYEFNAAAAANAQVYGQTGLPYGPGSEAAAFGSNGLGGFPPLNSVSPSPLMLLHPPPQLSPFLQPHGQQVPYYLENEPSGYTVREAGPPAFYRPNSDNRRQGGRERLASTNDKGSMAMESAKETRY
notes: as for B1
binding result [3]: binds

B4: Androgen receptor activation domain fragment Tau-5* C404 (residues 330-447, C448 deleted) (Homo sapiens; del448) (protein)
chain: AAGSSGTLELPSTLSLYKSGALDEAAAYQSRDYYNFPLALAGPPPPPPPPHPHARIKLENPLDYGSAWAAAAAQCRYGDLASLHGAGAAGPGSGSPSAAASSSWHTLFTAEEGQLYGP
pKa [4]: 8.95 ± 0.05

B5: Androgen receptor activation domain fragment Nt C123 (residues 1-151, C129S) (Homo sapiens; C129S) (protein)
chain: MEVQLGLGRVYPRPPSKTYRGAFQNLFQSVREVIQNPGPRHPEAASAAPPGASLLLLQQQQQQQQQQQQQQQQQQQQQETSPRQQQQQQGEDGSPQAHRRGPTGYLVLDEEQQPSQPQSALECHPERGSVPEPGAAVAASKGLPQQLPAPP
pKa (Cys123 (position 123, …)): 8.86 ± 0.03

B6: mineralocorticoid receptor activation domain (MR AD) (domain or fragment, human (from the printed UniProt entry), UniProt P08235 1-602, looked up)
chain: METKGYHSLPEGLDMERRWGQVSQAVERSSLGPTERTDENNYMEIVNVSCVSGAIPNNSTQGSSKEKQELLPCLQQDNNRPGILTSDIKTELESKELSATVAESMGLYMDSVRDADYSYEQQNQQGSMSPAKIYQNVEQLVKFYKGNGHRPSTLSCVNTPLRSFMSDSGSSVNGGVMRAVVKSPIMCHEKSPSVCSPLNMTSSVCSPAGINSVSSTTASFGSFPVHSPITQGTPLTCSPNVENRGSRSHSPAHASNVGSPLSSPLSSMKSSISSPPSHCSVKSPVSSPNNVTLRSSVSSPANINNSRCSVSSPSNTNNRSTLSSPAASTVGSICSPVNNAFSYTASGTSAGSSTLRDVVPSPDTQEKGAQEVPFPKTEEVESAISNGVTGQLNIVQYIKPEPDGAFSSSCLGGNSKINSDSSFSVPIKQESTKHSCSGTSFKGNPTVNPFPFMDGSYFSFMDDKDYYSLSGILGPPVPGFDGNCEGSGFPVGIKQEPDDGSYYPEASIPSSAIVGVNSGGQSFHYRIGAQGTISLSRSARDQSFQHLSSFPPVNTLVESWKSHGDLSSRRSDGYPVLEYIPENVSSSTLRSVSTGSSRPSKI
notes: as for B1
binding result [3]: binds

B7: Androgen receptor activation domain fragment Ct C518 (residues 441-558, 4G polyG, C448 deleted) (Homo sapiens; del448;del451-470) (protein)
chain: EGQLYGPGGGGEAGAVAPYGYTRPPQGLAGQESDFTAPDVWYPGGMVSRVPYPSPTCVKSEMGPWMDSYSGPYGDMRLETARDHVLPIDYYFPPQKT
pKa (Cys518): 8.20 ± 0.08

From PMC12947862, “Oligomerization enables the selective targeting of an intrinsically disordered region by a small molecule” (Science Advances, 2026)
